Data taken from patent publication US20030096225A1.

Biological target: purified recombinant Ep-CAM produced in insect cells (UniProt P16422)
Test: SPR (BIAcore), Ep-CAM coupled to CM5 chip, control antibody

purified recombinant Ep-CAM produced in insect cells, sequence (P16422 24-265 limits assumed): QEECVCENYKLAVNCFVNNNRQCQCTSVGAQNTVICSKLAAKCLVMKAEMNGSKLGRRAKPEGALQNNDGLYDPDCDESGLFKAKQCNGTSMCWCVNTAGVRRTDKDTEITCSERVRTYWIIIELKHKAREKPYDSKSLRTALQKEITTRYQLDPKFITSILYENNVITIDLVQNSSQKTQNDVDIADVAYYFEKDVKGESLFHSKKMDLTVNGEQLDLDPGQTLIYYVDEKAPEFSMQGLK

Kd: 500 pM
Substance: murine anti-Ep-CAM antibody 323/A3
